Here are results for one substance from PMC10646970.

For this assay, the target named is PD-L1 (programmed cell death ligand 1), N-terminal domain.

For the substance “wild-type (natural) PD-1 (from UniProt Q15116 25-170) (natural protein)”, the increase in IFN-gamma production in MDA-MB-231/PBMC coculture, 10 ug/mL protein, 48 h, ELISA; PD-L1 is that on the tumour cells; pair blocked: PD-1 on PBMCs / PD-L1 stood at 92%.
